Source: US12122842 (R AND D SYSTEMS, dated 2024)

Experiments:
[1] = target: T1, recombinant human CD30 protein (UniProt P28908 19-385); experiment: SPR
T1 chain: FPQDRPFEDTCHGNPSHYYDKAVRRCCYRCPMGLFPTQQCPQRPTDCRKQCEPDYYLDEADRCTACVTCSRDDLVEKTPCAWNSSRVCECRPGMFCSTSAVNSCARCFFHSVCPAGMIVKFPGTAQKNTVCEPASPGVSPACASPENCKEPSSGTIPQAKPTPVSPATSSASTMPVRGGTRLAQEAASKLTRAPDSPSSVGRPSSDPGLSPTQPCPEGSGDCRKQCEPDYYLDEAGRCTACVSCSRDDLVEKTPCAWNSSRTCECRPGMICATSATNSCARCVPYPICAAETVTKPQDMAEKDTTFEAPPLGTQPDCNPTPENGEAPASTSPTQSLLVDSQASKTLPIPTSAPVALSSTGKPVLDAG

[2] = target: T2, human CD30/TNFRSF8 on Jurkat human acute T cell leukemia cells (Clone E6-1) (human, UniProt P28908 19-595); experiment: flow cytometry on Jurkat cells, PE anti-mouse IgG secondary
T2 construct: Endogenous CD30 on Jurkat cells; also called hCD30; hCD30/TNFRSF8
T2 sequence: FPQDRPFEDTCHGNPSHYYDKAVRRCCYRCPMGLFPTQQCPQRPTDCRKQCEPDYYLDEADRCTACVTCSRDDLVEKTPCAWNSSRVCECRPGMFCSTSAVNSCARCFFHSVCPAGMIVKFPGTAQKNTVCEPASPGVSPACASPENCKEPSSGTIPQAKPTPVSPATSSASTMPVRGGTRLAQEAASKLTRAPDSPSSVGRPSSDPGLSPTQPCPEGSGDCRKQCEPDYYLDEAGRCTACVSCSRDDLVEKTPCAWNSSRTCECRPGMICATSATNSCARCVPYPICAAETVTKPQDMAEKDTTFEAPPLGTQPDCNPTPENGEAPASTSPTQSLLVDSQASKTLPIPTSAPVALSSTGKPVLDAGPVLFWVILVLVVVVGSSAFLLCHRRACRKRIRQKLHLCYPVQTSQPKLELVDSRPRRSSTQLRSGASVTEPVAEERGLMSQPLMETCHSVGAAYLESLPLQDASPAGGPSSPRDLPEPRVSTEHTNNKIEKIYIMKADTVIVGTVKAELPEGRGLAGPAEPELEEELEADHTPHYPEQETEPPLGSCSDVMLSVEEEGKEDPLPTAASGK
Protocol: Jurkat human acute T cell leukemia cell line (Clone E6-1, ATCC Catalog #TIB-152) was stained with Mouse Anti-Human CD30 Monoclonal Antibody (Clone 81316.11, filled histogram) or isotype control antibody (Catalog #MAB002, open histogram), followed by Phycoerythrin-conjugated Anti-Mouse IgG Secondary Antibody (Catalog #F0102B).
Jurkat cells were harvested and washed two times in 2 mL of 1x flow staining buffer (FC001). The cells were resuspended in 1x flow staining buffer to a concentration of ~1.0×10⁶ cells/mL. About 90 µL of the cell suspension was added to each flow tube. About 10 µL of either 25 µg/mL Msxh CD30 or MsIgG1 was added to the appropriate tube, and the tubes were vortexed and then incubated for 20 minutes at room temperature. Cells were washed two times in 2 mL of 1× flow staining buffer. About 10 µL of goat anti-Mouse IgG PE secondary antibody was added to each tube, vortexed, and then incubated in the dark for 20 minutes at room temperature. Cells were washed two times in 2 mL of 1× flow staining buffer. 100 µL of 2× Sytox Blue Dead Cell Stain (ThermoFisher, S34857) was added and the cells were analyzed by flow cytometry.

B1: Mouse Anti-Human CD30 Monoclonal Antibody (Clone 81316.11) (antibody, V domains shown)
VH: QVQLKESGPGLVAPSQSLSITCTVSGFSLTSYGVHWVRQPPGKGLEWLGVIWAGETINYNLALMSRLSISKDNSKSQVFLKMNSLQTEDTAMYYCARDQGEYGNYGWYFDVWGAGTTVTVSS
VL: DIQMTQTTSSLSASLGDRVTISCSASQGISNYLNWYQQKPDGTVKLLIYYTSSLHSGVPSRFSGSGSGTDYSLTISNLEPEDIATYYCQHYSKLPPTFGGGTKLEIKR
notes: It is a mouse monoclonal, and the isotype control used beside it is MsIgG1; also called anti-hCD30 antibody; recombinant hCD30 antibody
For B1, the Kd [1] was 5.1 nM and the binding result [2] was “binds”.
